Assay results taken from US20250257130A1 (NONA BIOSCIENCES SUZHOU, published 2025).
Where a chain is given by its changes, count along the chain named. Each block holds one binder with its values, some of them ahead of it.

Key:
[1] = target: T1, human ROR1 on cells (HEK293T-hROR1, PANC-1, A549) (human, UniProt Q01973 30-937); assay: flow cytometry on PANC-1 cells, MFI (FITC-A Median) [continued) C]
T1 construct: whole, on cells; one molecule for the three cell lines; also called huROR1; cell surface ROR1
T1 sequence (Q01973 30-937): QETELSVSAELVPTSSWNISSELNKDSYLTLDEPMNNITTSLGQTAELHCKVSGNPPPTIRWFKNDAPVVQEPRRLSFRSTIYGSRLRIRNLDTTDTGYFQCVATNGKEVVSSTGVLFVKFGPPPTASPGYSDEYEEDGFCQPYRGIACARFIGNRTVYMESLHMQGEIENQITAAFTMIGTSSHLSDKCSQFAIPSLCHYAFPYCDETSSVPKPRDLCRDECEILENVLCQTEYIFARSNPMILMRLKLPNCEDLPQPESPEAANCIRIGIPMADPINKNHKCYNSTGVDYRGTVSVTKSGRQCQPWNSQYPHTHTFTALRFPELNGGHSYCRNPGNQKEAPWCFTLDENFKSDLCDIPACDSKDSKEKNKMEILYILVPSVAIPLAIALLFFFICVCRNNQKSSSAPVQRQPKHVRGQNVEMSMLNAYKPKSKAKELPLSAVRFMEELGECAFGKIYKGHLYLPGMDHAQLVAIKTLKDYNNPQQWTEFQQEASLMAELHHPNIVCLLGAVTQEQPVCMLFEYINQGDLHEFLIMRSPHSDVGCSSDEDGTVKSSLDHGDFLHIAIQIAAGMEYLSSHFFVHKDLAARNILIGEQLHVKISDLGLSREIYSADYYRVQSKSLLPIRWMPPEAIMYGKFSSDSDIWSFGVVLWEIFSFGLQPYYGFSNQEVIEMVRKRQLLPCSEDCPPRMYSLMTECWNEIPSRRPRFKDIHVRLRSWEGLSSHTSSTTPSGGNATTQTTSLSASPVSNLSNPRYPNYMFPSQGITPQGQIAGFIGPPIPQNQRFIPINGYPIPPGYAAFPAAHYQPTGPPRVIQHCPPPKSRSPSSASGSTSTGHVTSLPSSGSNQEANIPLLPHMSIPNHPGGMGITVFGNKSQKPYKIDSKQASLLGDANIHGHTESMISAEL
Protocol: (§1) Binding of recombinant anti-ROR1 antibodies to human or cynomolgus ROR1-overexpressing cells was tested by flow cytometry. In this example, ROR1-expressing cell lines are HEK293T cell lines that had been transfected to express human ROR1 on the surface (HEK293T-hu ROR1, KYINNO BIOTECHNOLOGY CO., LTD, Catalog #KC-1018), CHO-K1 cell lines that had been transfected to express cynomolgus ROR1 (CHOK1-cyno ROR1), PANC-1 (ATCC, catalog: CRL-1469) or A549 cell lines (Shanghai Institute of Biochemistry and Cell Biology, Chinese Academy of Sciences).
(§2) In brief, anti-ROR1 antibodies were serially diluted in staining buffer (PBS containing 2% FBS). Antibody solution was incubated with 1×10⁵ cells at 4° C. for 1 hour. […] After 1-hour incubation at 4° C., cells were washed twice with staining buffer and subjected to flow cytometry. PR000374 (Bench marker 1) and non-relevant IgG isotype control (Crownbio) were used as positive and negative controls, respectively.

[2] = target: T1, human ROR1 on cells (HEK293T-hROR1, …); assay: flow cytometry, PANC-1 cells
Protocol: as §2

[3] = target: T2, cynomolgus ROR1 on CHO-K1-cynoROR1 cells (cynomolgus monkey, UniProt A0A2K5WTX7 30-937); assay: flow cytometry on CHOK1-cynoROR1 cells, MFI (APC-A Median) [middle panel, letter not given]
T2 construct: whole, on cells
Protocol: as §1, §2

[4] = target: T1, human ROR1 on cells (HEK293T-hROR1, …); assay: flow cytometry on PANC-1 cells, MFI (FITC-A Median)
Protocol: as §1, §2

[5] = target: T2, cynomolgus ROR1 on CHO-K1-cynoROR1 cells; assay: flow cytometry, CHO-K1-cynoROR1 cells
Protocol: as §1, §2

[6] = target: T1, human ROR1 on cells (HEK293T-hROR1, …); assay: flow cytometry, HEK293T-hROR1 cells; HEK293T-hROR1 cells (ROR1 overexpressed), FACS: binds
Protocol: as §2

[7] = target: T3, Human ROR1-ECD-his (Acro Biosystems RO1-H522y) (human, UniProt Q01973 30-406); assay: BLI, ROR1-His on HIS1K sensor, antibody in solution
T3 construct: extracellular domain; bought protein; also called hROR1-ECD-his; hu-ROR1-ECD-his
T3 sequence (Q01973 30-406): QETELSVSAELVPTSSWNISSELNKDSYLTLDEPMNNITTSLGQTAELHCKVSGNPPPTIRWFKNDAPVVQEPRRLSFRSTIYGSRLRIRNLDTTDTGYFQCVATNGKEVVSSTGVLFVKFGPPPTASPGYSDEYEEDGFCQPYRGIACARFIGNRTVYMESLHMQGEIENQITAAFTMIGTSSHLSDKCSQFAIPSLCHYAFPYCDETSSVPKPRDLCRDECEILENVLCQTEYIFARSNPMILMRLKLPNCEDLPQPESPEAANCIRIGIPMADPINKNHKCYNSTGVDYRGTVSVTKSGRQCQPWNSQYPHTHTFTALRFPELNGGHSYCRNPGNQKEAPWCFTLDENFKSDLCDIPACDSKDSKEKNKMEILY
Outline: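 His-tagged ROR1 (20 nM) captured on HIS1K biosensors; serially diluted antibodies in kinetics buffer as analyte. Association and dissociation rate constants measured by Octet biolayer interferometry, sensors regenerated with 10 mM glycine-HCl pH 1.5 between cycles.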

[8] = target: T2, cynomolgus ROR1 on CHO-K1-cynoROR1 cells; assay: flow cytometry, CHO-K1-cynoROR1 cells; remark: listed apart in the source
Protocol: as §2

[9] = target: T3, Human ROR1-ECD-his (Acro Biosystems …); assay: ELISA, coated hu-ROR1-ECD-his
[10] = target: T4, hu-ROR2-ECD-his (Acrobiosystems RO2-H52E5) (human, UniProt Q01974 34-403); assay: ELISA, plate coated with hu-ROR2-his at 1 µg/mL
T4 construct: extracellular domain; bought protein; also called Human ROR2 his-tagged protein; Human ROR2, His Tag
T4 sequence (Q01974 34-403): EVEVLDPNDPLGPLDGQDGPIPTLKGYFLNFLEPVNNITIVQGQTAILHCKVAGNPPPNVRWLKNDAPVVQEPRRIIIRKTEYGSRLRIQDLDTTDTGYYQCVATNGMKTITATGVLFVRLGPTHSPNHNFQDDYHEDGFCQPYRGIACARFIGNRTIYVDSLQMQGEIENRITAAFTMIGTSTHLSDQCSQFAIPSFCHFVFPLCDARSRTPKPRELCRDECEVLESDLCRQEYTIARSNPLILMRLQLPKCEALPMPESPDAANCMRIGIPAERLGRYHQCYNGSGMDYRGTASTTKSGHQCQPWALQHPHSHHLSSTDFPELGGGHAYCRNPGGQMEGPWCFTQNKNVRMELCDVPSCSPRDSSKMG
Outline: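 Plates were coated overnight at 4 °C with 1 μg/mL human ROR2-ECD-his and blocked with 2% BSA. Serially diluted anti-ROR1 antibodies were bound for 1 h at 37 °C, then secondary antibody for 1 h at 37 °C. Detection was by TMB (~5 min), stopped with H2SO4, and read at 450/570 nm.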

[11] = target: T1, human ROR1 on cells (HEK293T-hROR1, …); assay: flow cytometry on PANC-1 cells, MFI (APC-A Median)
Protocol: as §1, §2

[12] = target: T2, cynomolgus ROR1 on CHO-K1-cynoROR1 cells; assay: flow cytometry on CHOK1-cynoROR1 cells, MFI (APC-A Median) [top panel]
Protocol: as §1, §2

[13] = target: T3, Human ROR1-ECD-his (Acro Biosystems …); assay: BLI in-tandem, row = 1st Ab; competitor (2nd Ab): PR005340
Text: (§3) To determine if anti-ROR1 antibodies bind to human ROR1 on different or approximate binding epitopes, the ForteBio Octet® RED96e platform was used to perform epitope competition experiments on the anti-ROR1 antibodies. Human ROR1 protein (Acrobiosystems, #RO1-H522y) was biotinylated and then captured onto SA biosensors (ForteBio, #18-5020) to reach loading level of 0.3-0.4 nm. The in-tandem competition assay format was applied and it contains two association steps. Firstly, the antigen-loaded biosensors bind to each antibody (a.k.a, First antibody, 1st Ab) with a saturating concentration of 200 nM for 180 seconds to reach equilibrium and then secondly bind to the competing antibodies (a.k.a, Second antibody, 2nd Ab) of 200 nM for 180 seconds. The second binding signals were recorded as the 100% signal of each antibody when the first antibodies were replaced by kinetics buffer. All the binding data were analyzed using ForteBio Data Analysis 11.0 software. The inhibition rate is calculated by the following formula: […]

[14] = target: T3, Human ROR1-ECD-his (Acro Biosystems …); assay: BLI in-tandem, row = 1st Ab; competitor (2nd Ab): PR005338
Text: as §3

[15] = target: T4, hu-ROR2-ECD-his (Acrobiosystems …); assay: BLI, antibody on AHC sensor, ROR2-His in solution
Protocol: In the example, binding kinetics of anti-ROR1 antibodies to soluble ROR2 protein were analyzed by using Bio-Layer Interferometry (BLI) analysis on Fortebio Octet Red384 instrument (Fortebio). […] The captured biosensors were then dipped in wells containing 2-fold serial dilutions of antigen proteins to detect association signals, followed by dissociation steps in wells containing 1× kinetic buffer. Human ROR2 his-tagged protein (Acrobiosystems, #RO2-H52E5) was diluted from 600 nM to 37.5 nM; the association phase was 180 seconds, and the dissociation phase was 180 seconds. The sensorgrams were recorded and the reference signals were subtracted before curve fitting using ForteBio Data Analysis 11.0 software. Association rates (kₒₙ) and dissociation rates (kdis) were calculated using a simple one-to-one Langmuir binding model. The equilibrium dissociation constant (KD) was calculated as the ratio of kdis/kₒₙ.

[16] = target: T1, human ROR1 on cells (HEK293T-hROR1, …); assay: flow cytometry, PANC-1 cells; remark: listed apart in the source
Outline: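 Anti-ROR1 antibodies, serially diluted in PBS with 2% FBS, were incubated with 1×10⁵ PANC-1 cells for 1 hour at 4° C. A further 1-hour incubation at 4° C followed, then two washes and flow cytometry. A benchmark anti-ROR1 antibody and an isotype IgG served as positive and negative controls.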

[17] = target: T3, Human ROR1-ECD-his (Acro Biosystems …); assay: BLI in-tandem, row = 1st Ab; competitor (2nd Ab): PR000374
Text: as §3

[18] = target: T3, Human ROR1-ECD-his (Acro Biosystems …); assay: BLI, antibody on AHC sensor, ROR1-His 5-80 nM in solution
Protocol: The captured biosensors were then dipped in wells containing 2-fold serial dilutions of antigen proteins to detect association signals, followed by dissociation steps in wells containing 1× kinetic buffer. Human ROR1 hits-tagged protein (Acrobiosystems, #RO1-H522y) was diluted from 80 nM to 5 nM; the association phase was 180 seconds, and the dissociation phase was 600 seconds. The sensorgrams were recorded and the reference signals were subtracted before curve fitting using ForteBio Data Analysis 11.0 software. Association rates (kₒₙ) and dissociation rates (kdis) were calculated using a simple one-to-one Langmuir binding model. The equilibrium dissociation constant (KD) was calculated as the ratio of kdis/kₒₙ.

[19] = target: T3, Human ROR1-ECD-his (Acro Biosystems …); assay: BLI in-tandem, row = 1st Ab; competitor (2nd Ab): PR007424
Text: as §3

[20] = target: T1, human ROR1 on cells (HEK293T-hROR1, …); assay: flow cytometry on PANC-1 cells, MFI (Median-APC) [top panel]
[21] = target: T3, Human ROR1-ECD-his (Acro Biosystems …); assay: BLI in-tandem, row = 1st Ab; competitor (2nd Ab): PR007417
Text: as §3

[22] = target: T1, human ROR1 on cells (HEK293T-hROR1, …); assay: flow cytometry on PANC-1 cells, MFI (Median-APC) [middle panel, letter not given]
[23] = target: T1, human ROR1 on cells (HEK293T-hROR1, …); assay: flow cytometry on PANC-1 cells, MFI (Median-APC) [bottom panel, letter not given]

B2: PR005344 (antibody, human IgG1, V domains shown)
VH: EVQLVESGGGLVKPGGSLRLSCAASGFTFSDYYMSWIRQAPGKGLEWISYISNSSSSISYANSVKGRFTVSRDNAKNSLYLQMNSLRAEDTALYYCARSPRGAFYEDFDYWGQGTLVTVSS
notes: HCAb (heavy chain-only, human IgG1 Fc), no light chain
- EC50 (read off the curve) [3]: ~10 nM
- EC50 (read off the curve) [4]: ~20 nM
- Max [2]: 12400
- Max [5]: 30700

B5: PR005340 (antibody, human IgG1, V domains shown)
VH: EVQLVESGGGLVKPGGSLRLSCAASGFTFSDYYMSWIRQAPGKGLEWISYISSSGSTIHYADSVKGRFTISRDNAKNSLYLQMNSLRAEDTAIYYCARDIPSSSSDWVSLQFDYWGQGTLVTVSS
notes: as for B2
- EC50 (read off the curve) [11]: ~2 nM
- EC50 (read off the curve) [12]: ~3 nM
- Inhibition (%) [13]: 109%
- Inhibition (%) [14]: 106%
- binding result [15]: no binding (tested: 37.5-600 nM)
- TOP [16]: 84900
- Inhibition (%) [17]: -0.17%
- Kd [18]: 1.2 nM
- koff [18]: 0.000171 s⁻¹
- kon [18]: 143000 M⁻¹ s⁻¹
- Inhibition (%) [19]: 106%
- EC50 (read off the curve) [20]: ~3 nM
- Inhibition (%) [21]: 109%
- EC50 (read off the curve) [22]: ~2 nM
- Max [2]: 17500
- Max [5]: 36400
- EC50 (read off the curve) [23]: ~2 nM

B6: PR005338 (antibody, human IgG1, V domains shown)
VH: B5 VH with S56T, A88T, I93V, I100A, S104N
notes: as for B2
- EC50 (read off the curve) [3]: ~8 nM
- Inhibition (%) [13]: 108%
- Inhibition (%) [14]: 104%
- binding result [15]: no binding (tested: 37.5-600 nM)
- Inhibition (%) [17]: -3.02%
- Kd [18]: 2.4 nM
- koff [18]: 0.000316 s⁻¹
- kon [18]: 132000 M⁻¹ s⁻¹
- Inhibition (%) [19]: 102%
- Inhibition (%) [21]: 108%
- EC50 (read off the curve) [4]: ~7 nM
- Max [2]: 12700
- Max [5]: 33300

Continued, values first:

- EC50 (read off the curve) [1]: ~9 nM
- Max [2]: 23300
B1: PR005352 (antibody, human IgG1, V domains shown)
VH: EVQLVESGGGLVKPGGSLRLSCAASGFTFSDYYMSWIRQAPGKGLEWISYISSSGGSIYYADSVKGRFTISRDNAKNSLYLQMNRLRAEDTALYYCARTPPSSNNWYEDFDYWGQGALVTVSS
notes: as for B2

- EC50 (read off the curve) [1]: ~10 nM
- Max [2]: 27100
B3: PR005349 (antibody, human IgG1, V domains shown)
VH: B2 VH with G102S
notes: as for B2

- EC50 [6]: 0.085 µg/mL
- Kd [7]: 0.623 nM
- koff [7]: 0.00403 s⁻¹
- kon [7]: 6.46e+06 M⁻¹ s⁻¹
- EC50 [8]: 7.53 µg/mL
- MAX(MFI) [8]: 5.3e+06 MFI
- EC50 [9]: 2 ng/mL
- binding result [10]: no binding (tested: about 15 µg/ml)
B4: PR303189 (antibody, human IgG1, V domains shown)
VH: EVQLVESGGGLVKPGGSLRLSCAASGFNLSDSYMSWIRQAPGKGLEWVSCISSSGSTIYYADSVKGRFTVSRDNAKNSLYLQMNHLRAEDTALYYCARDCVIGIRDDSDIWGQGTMVTVSS
notes: as for B2
